# Reference: publication PMC11649690, “CEP signaling coordinates plant immunity with nitrogen status” (Nature Communications, 2024)
# Non-standard residues stand in square brackets, D forms with d. No end group written: not given here. Hyp = O=C(O)[C@@H]1C[C@@H](O)CN1
# T1: CEP RECEPTOR 2 ectodomain (CEPR2^ECD) (Arabidopsis thaliana, UniProt Q9C7T7 32-620)
# T1 construct: CEPR2, Arabidopsis thaliana, ectodomain, residues 32 to 620; Secreted with a 30 K signal peptide from the modified pFastBAC vector; a TEV site stood before the StrepII-9xHis tag, so residues of the site may be left after cleavage; source: Trichoplusia ni Tnao38 cells, secreted, purified (Ni2+, Strep-Tactin, TEV, SEC); not shown: StrepII, C-terminal, cleaved; His9, C-terminal, cleaved
# T1 sequence (looked up): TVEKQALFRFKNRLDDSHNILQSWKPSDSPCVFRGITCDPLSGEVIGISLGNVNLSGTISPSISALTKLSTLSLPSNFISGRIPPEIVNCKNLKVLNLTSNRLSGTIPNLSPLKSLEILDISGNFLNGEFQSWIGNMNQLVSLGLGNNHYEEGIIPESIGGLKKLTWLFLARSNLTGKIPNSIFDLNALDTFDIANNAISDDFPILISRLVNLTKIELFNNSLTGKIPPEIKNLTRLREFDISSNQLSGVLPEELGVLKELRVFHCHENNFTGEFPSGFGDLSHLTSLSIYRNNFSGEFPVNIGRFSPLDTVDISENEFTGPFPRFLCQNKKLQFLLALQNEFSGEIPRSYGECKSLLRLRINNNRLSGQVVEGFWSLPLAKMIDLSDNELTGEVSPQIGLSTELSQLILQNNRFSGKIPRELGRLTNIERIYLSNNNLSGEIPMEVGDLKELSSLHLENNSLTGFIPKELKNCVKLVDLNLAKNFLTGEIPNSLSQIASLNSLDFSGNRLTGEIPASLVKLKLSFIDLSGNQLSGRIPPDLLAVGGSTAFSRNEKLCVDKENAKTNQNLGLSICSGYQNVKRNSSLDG
# T2: RECEPTOR-LIKE KINASE 7 ectodomain (RLK7^ECD) (Arabidopsis thaliana, UniProt F4I2N7 29-608)
# T2 construct: RLK7, Arabidopsis thaliana, ectodomain, residues 29 to 608; Secreted with a 30 K signal peptide from the modified pFastBAC vector; a TEV site stood before the StrepII-9xHis tag, so residues of the site may be left after cleavage; source: Trichoplusia ni Tnao38 cells, secreted, purified (Ni2+, Strep-Tactin, TEV, SEC); not shown: StrepII, C-terminal, cleaved; His9, C-terminal, cleaved
# T2 sequence (looked up): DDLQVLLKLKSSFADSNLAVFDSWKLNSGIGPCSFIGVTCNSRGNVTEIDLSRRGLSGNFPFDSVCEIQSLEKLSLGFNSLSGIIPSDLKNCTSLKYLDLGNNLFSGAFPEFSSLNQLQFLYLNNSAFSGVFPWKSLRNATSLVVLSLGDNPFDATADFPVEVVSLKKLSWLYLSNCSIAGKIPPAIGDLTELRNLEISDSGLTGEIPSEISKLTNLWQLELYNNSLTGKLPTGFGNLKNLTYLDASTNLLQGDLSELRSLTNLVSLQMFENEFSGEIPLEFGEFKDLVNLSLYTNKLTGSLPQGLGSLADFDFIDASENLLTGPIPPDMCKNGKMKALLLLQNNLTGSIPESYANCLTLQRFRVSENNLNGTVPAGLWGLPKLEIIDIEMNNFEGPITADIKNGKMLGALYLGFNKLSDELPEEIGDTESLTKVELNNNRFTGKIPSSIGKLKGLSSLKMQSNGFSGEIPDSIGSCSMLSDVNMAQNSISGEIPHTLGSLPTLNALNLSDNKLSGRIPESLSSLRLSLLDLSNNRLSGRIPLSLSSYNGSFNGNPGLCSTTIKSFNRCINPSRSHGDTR
# Key:
# [1] = system: cytosolic calcium concentrations ([Ca^2+]cyt), Col-0^AEQ seedlings; experiment: Calcium influx assay (aequorin seedlings); format: in vivo, Arabidopsis thaliana; conditions: wild type, 30 min
# Experimental: Apoaequorin-expressing liquid-grown eight-day-old seedlings were transferred individually to a 96-well plate containing 100 µl of 5 µM coelenterazine-h (PJK Biotech, Germany) and incubated in the dark overnight. Luminescence was measured using a plate reader (Luminoskan Ascent 2.1, Thermo Fisher Scientific, USA). Background luminescence was recorded by scanning each well 12 times at 10 s intervals, before adding a 25 µl elicitor solution to the indicated final concentration. Luminescence was recorded for 30 min at the same interval. The remaining aequorin was discharged using 2 M CaCl2, 20% ethanol. The values for cytosolic Ca^2+ concentrations ([Ca^2+]cyt) were calculated as luminescence counts per second relative to total luminescence counts remaining (L/Lmax).
# [2] = biological target: T1, CEP RECEPTOR 2 ectodomain (CEPR2^ECD); experiment: ITC; 300 μM peptide in the syringe injected into 30 μM receptor ectodomain in the cell; 25 °C; 20 mM citrate pH 5.0, 150 mM NaCl (SEC buffer); N fitted to 1; duplicates; conditions: both partners purified
# [3] = biological target: T2, RECEPTOR-LIKE KINASE 7 ectodomain …; experiment: as above; conditions: both partners purified
Molecule,calcium influx [1],Kd [2] [µM],Kd [3] [µM]
"AFR[Hyp]THQG[Hyp]SQGIGH [CEP4-15mer, 15mer peptide lacking the N-terminal D residue]",triggered a dose-dependent calcium influx with no significant differences to the response elicited by the 16mer peptide,–,–
"DAFR[Hyp]THQG[Hyp]SQGIGH (CEP4 peptide domain of the CEP4 precursor, Arabidopsis thaliana (AT2G35612); 16mer with N-terminal D and C-terminal H; a 15mer without the N-terminal D is reported only for calcium influx; source: synthetic peptide (Pepmic, at least 90% purity)) [C-… ENCODED PEPTIDE 4 (CEP4), 16mer]",–,15.7,9
"DFRPTNPGNSPGVGH (peptide, UniProt Q8L8Y3 72-86, looked up, CEP1 peptide, the mature CEP domain cut from the CEP1 precursor, Arabidopsis thaliana; source: synthetic peptide (Pepmic, at least 90% purity)) [C-… ENCODED PEPTIDE 1 (CEP1)]",–,9.3,–
RLASG[Hyp]SPRGRGH [PAMP-INDUCED PEPTIDE 1 (PIP1)],–,–,0.5
